From PMC6901930 come the findings set out here.

The target of this data set is Major capsid protein (MCP), Trx fusion (Singapore grouper iridovirus (SGIV-Gx), UniProt Q5YFJ3 1-463). Description: EMSA. Conditions: protein: recombinant; tags: Trx-His (pET-32a), 68 kDa. On the technique in general: In EMSA bound probe runs differently from free probe, usually more slowly.

B1: Q5c (ssDNA)
DNA: TATTCGGGTTATTGCTCCTCTTTATTGTCACCTGGATGTATGATCGTGTAG
Consider B1, for which the binding result is “binds”.
